B1: Pre-mRNA-processing factor 40 homolog B, residues 274 to 332; numbered along this chain, Q6NWY9 (parent)
chain: SNREKAKQAFKELLRDKAVPSNASWEQAMKMVVTDPRYSALPKLSEKKQAFNAYKAQRE

Variants of: B1
Test: abundance fitness (aPCA) (normalised: wild type 0, dead -1); higher = more abundant; growth selection in yeast, the domain comes from the species named
Conditions: Homo sapiens

Abundance fitness of substitutions, site by site:
P36: E -0.103; H -0.445; D -0.049; Q -0.289; M -0.607; T -0.293; N -0.418
Q49: K -0.066; A 0.112; R -0.116; I -0.307; H -0.407; F -0.636; G -0.343; E 0.294; N -0.481; C -0.239; D 0.021; L -0.386; P -0.574
Y38: R -0.476; G -0.436; W -0.085; C -0.368; F -0.02; L -0.546; V -0.38; E -0.399; P -0.423; A -0.317; Q -0.284; S -0.293; T -0.136; N -0.466; K -0.217; H -0.392; I -0.548; M -0.613; D -0.346
R37: M -0.705; C -0.668; A -0.223; I -0.228; L -0.6; F -0.905; G -0.577; Q -0.49; W -0.836; D -0.74; Y -1.25; T -0.658; E -0.479; H -0.776
S45: V -0.457; T -0.211; C -0.484; G -0.265; E -0.027; W -0.427; K -0.117; P -0.369; A -0.136; H -0.016; Q -0.15; I -0.458; R -0.303; F -0.233; L -0.541; D -0.097
D35: R -1.12; S -0.716; L -0.853; K -1.11; A -0.701; T -0.714; F -0.951; N -0.415; I -0.94; G -0.742; M -0.699; W -1.21; E -0.372; V -0.85; P -0.905; Y -1.38; Q -0.823
K48: Q -0.161; D -0.579; A -0.49; T -0.45; I -0.047; H -0.335; C -0.837; R -0.196; N -0.545; F -0.435; P -0.306; L 0.122; Y -0.259; E -0.344; W -0.532; M -0.01; G -0.664
K30: R -0.03; H -0.384; S -0.156; F -0.76; T -0.143; Y -1.08; P -0.146; W -0.999; G -0.214; L -0.42; Q -0.072; V -0.429; I -0.701; M -0.247
A40: V -0.075; R -0.304; S 0.005; M 0.177; C -0.129; D -0.739; P -0.675; K -0.27; T -0.312; Y -0.368; L 0.008; Q -0.417; W -0.588; E -0.42; G -0.206
L41: M -0.176; Y -0.34; V -0.16; H -0.785; Q -0.295; T -0.214; R -0.552; I -0.268; E -0.189; P -0.295; S -0.519; N -0.443; C -0.438; A -0.451; W -0.486; D -0.439; K -0.372
E46: G -0.694; I -0.872; A -0.466; P -0.817; Q -0.147; M -0.413; C -0.519; N -0.566; Y -0.755; S -0.716; H -0.724; F -1.03; R -1.04; K -0.939; T -0.631; L -0.73; D 0.027; V -0.672
